Each block holds one molecule with its values, some of them ahead of it. No end group written: not given here.
Assays:
NgR = molecular target: T1, NgR (Homo sapiens, UniProt Q9BZR6); test: AP fusion protein binding to NgR expressing COS-7 cells; settings: for NgR Kd (nM) / Kd: AP fused Amino-Nogo fragments in conditioned media on NgR expressing COS-7 cells, 'No binding at' cells continue on the next line: AmNg A 150 nM, a.a. 1000-1018, a.a. 1005-1018, Amino of NgC 25 nM, a.a. 950-1004 50 nM, Amino of NgB 100 nM; for binding to NgR (COS-7 cells expressing NgR): qualitative
T1 construct: expressed in transfected cells; host or cells: COS-7
T1 sequence (Q9BZR6 27-447): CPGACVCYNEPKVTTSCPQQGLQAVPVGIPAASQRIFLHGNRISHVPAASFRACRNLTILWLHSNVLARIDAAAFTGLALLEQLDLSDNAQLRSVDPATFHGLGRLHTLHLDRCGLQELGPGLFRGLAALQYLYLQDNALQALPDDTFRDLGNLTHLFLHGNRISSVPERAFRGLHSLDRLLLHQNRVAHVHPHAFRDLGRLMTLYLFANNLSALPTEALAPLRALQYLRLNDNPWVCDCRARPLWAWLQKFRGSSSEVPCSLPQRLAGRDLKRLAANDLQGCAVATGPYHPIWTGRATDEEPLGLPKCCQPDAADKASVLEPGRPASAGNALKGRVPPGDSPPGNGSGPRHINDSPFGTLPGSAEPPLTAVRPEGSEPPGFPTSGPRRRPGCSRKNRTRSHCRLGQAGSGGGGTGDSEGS
Description: Several alkaline phosphatase (AP) fusion proteins containing various Nogo-A segments derived from regions between the amino terminus and the first hydrophobic segment were examined to identify the mechanism of Amino-Nogo-A action. To generate additional AP fusion proteins, human amino Nogo fragments were amplified and ligated to the pcAP6 vector digested with restriction enzymes EcoRI and XhoI as described (Fournier, A. E., et al., Nature 409:341-346 (2001)). Plasmids were then transfected into HEK293T cells and conditioned media were collected after 7 days. None of these fragments bind with high affinity to non-transfected COS-7 cells. […] This binding is saturable with a Kd indistinguishable from that for AP-Nogo-66 association with NgR (Table I). To better define the region responsible for Amino-Nogo interaction with NgR, a range of truncation mutants of Amino-Nogo were examined as AP fusion proteins. […] In fact, the NgR-interacting segment of Amino-Nogo is fully accounted for in the extreme carboxyl 24 amino acids (aa 995-1018, Amino-Nogo-A-24) (Table I and FIG. 1D). […] We named this domain (aa 995-1013) as Amino-Nogo-A-19.
Binding Kds for AP fused Amino-Nogo fragments were measured by applying conditioned media containing AP fusion protein to NgR expressing COS-7 cells. Bound AP was stained and measured.
It has been recognized that the Amino-Nogo-A protein inhibits non-neuronal cell spreading and axonal outgrowth when the protein is substrate bound (Chen, M. S., et al., Nature 403:434-439 (2000); Fournier, A. E., et al., Nature 409:341-346 (2001)). […] The later domain has been termed Δ20. To determine whether the NgR-interacting aa of Amino-Nogo-A described in Example 1 regulate cell spreading and axonal outgrowth, various fragments were expressed as GST fusion proteins and purified from E. coli. To generate GST fusion proteins, amino Nogo fragments were cloned in pGEX2T (Amersham Pharmacia). Native and soluble GST fusion proteins were expressed and purified as described (GrandPre, T., et al., Nature 403:439-444 (2000)). COS-7 binding assays were done as described (Fournier, A. E., et al., Nature 409:341-346 (2001)). Bound AP to COS-7 cells was measured using NIH image software. Fibroblast spreading and cDRG outgrowth assay were done as described (Fournier, A. E., et al., Nature 409:341-346 (2001)) with some modifications. Briefly, 50 μl of purified GST fusion protein or peptides diluted in PBS was pipetted into polylysine precoated 96 well plates (Becton Dickson Biocoat plates) and dried overnight at room temperature. For fibroblast spreading assay, subconfluent COS-7 cells were then plated for 1 hour in serum containing medium before fixation and staining with rho damine-phalloidin.

NgR ligands = test: Binding of alanine substituted NgR mutants to NgR ligands, summary categories; settings: AP-Nogo66, AP-B4C, AP-B4C66, AP-Lingo-1, AP-OMgp and AP-MAG; compared to wild type NgR
Method in brief: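 Human NgR1 template; 74 mutants with 1-8 solvent-exposed charged surface residues (within 5 Å) Ala-substituted, plus glycosylation-site mutants and D259N polymorphism. Mutants tested for binding of AP-tagged Nogo66, Amino-Nogo-B4C, B4C66, MAG, OMgp and Lingo-1; each classed as losing all, keeping all, or selective ligand binding.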

AP-Nogo-66 = molecular target: T2, AP-Nogo-66 (UniProt Q9NQC3 1055-1120); test: AP-ligand binding, COS-7
T2 construct: domain: Nogo-66; construct described elsewhere (Fournier 2001); also called AP-Ng66; Ng66; not shown: alkaline phosphatase (AP); construct described elsewhere
T2 sequence (looked up): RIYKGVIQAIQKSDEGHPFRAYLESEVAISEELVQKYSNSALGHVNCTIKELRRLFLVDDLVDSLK

[1] = molecular target: T3, AP fusion protein with the B4C fragment of Amino-Nogo-A fused directly to Nogo-66 (human, UniProt Q9NQC3 1055-1120); test: AP-ligand binding, COS-7
T3 construct: domain: Nogo-66; also called AP-B4C66; AP-B4C-66; not shown: alkaline phosphatase (AP), vector pcAP6
T3 sequence: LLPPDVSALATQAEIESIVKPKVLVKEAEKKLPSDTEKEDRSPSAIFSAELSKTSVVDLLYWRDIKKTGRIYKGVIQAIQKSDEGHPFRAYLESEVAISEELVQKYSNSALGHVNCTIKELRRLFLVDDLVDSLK

[2] = molecular target: T4, AP-fused Amino-Nogo fragment B4C (a.a. 950-1018) (human, UniProt Q9NQC3 950-1018); test: AP-ligand binding, COS-7
T4 construct: also called AmNg B4C; AP-B4C; not shown: alkaline phosphatase (AP), vector pcAP6
T4 sequence: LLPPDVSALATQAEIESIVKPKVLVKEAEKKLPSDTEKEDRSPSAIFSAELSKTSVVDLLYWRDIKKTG

Molecule: ............IFSAELSKTS (LLPPDVSALATQAEIESIVKPKVLVKEAEKKLPSDTEKEDRSPSAIFSAELSKTS; also: alkaline phosphatase fusion; UniProt Q9NQC3 950-1004, looked up, fragment) [a.a. 950-1004, AP fusion protein of aa from the Nogo-A-specific region alone]
NgR Kd (nM) (NgR): No binding
binding to NgR (COS-7 cells expressing NgR) (NgR): do not bind to NgR

Molecule: IFSAELSKTSVVDLLYWRDIK [a.a. 995-1015]
Kd (NgR): 4.55 ± 3.66 nM

Molecule: MDGQKKNWKDKVVDLLYWRDIKKTG (not fully specified) [Amino of NgC, AP fusion protein of Amino-Nogo residues of Nogo-C]
NgR Kd (nM) (NgR): No binding
binding to NgR (COS-7 cells expressing NgR) (NgR): fail to associate with NgR-expressing cells

B1: a.a. 622-1018 (AmNg B): AP fusion protein of the carboxyl half of Amino-Nogo (fragment B), aa 622-1018 (protein)
chain: SAVPSAGASVIQPSSSPLEASSVNYESIKHEPENPPPYEEAMSVSLKKVSGIKEEIKEPENINAALQETEAPYISIACDLIKETKLSAEPAPDFSDYSEMAKVEQPVPDHSELVEDSSPDSEPVDLFSDDSIPDVPQKQDETVMLVKESLTETSFESMIEYENKEKLSALPPEGGKPYLESFKLSLDNTKDTLLPDEVSTLSKKEKIPLQMEELSTAVYSNDDLFISKEAQIRETETFSDSSPIEIIDEFPTLISSKTDSFSKLAREYTDLEVSHKSEIANAPDGAGSLPCTELPHDLSLKNIQPKVEEKISFSDDFSKNGSATSKVLLLPPDVSALATQAEIESIVKPKVLVKEAEKKLPSDTEKEDRSPSAIFSAELSKTSVVDLLYWRDIKKTG
modifications: left off: large carriers
Kd (NgR): 6.66 ± 1.49 nM
binding to NgR (COS-7 cells expressing NgR) (NgR): high affinity binding

B2: a.a. 877-1018 (AmNg B4): AP fusion protein of Amino-Nogo fragment B4, aa 877-1018 (protein)
chain: SKTDSFSKLAREYTDLEVSHKSEIANAPDGAGSLPCTELPHDLSLKNIQPKVEEKISFSDDFSKNGSATSKVLLLPPDVSALATQAEIESIVKPKVLVKEAEKKLPSDTEKEDRSPSAIFSAELSKTSVVDLLYWRDIKKTG
modifications: left off: large carriers
Kd (NgR): 9.01 ± 6.36 nM

B3: Amino of NgB: AP fusion protein of Amino-Nogo residues of Nogo-B (protein)
chain: MEDLDQSPLVSSSDSPPRPQPAFKYQFVREPEDEEEEEEEEEEDEDEDLEELEVLERKPAAGLSAAPVPTAPAAGAPLMDFGNDFVPPAPRGPLPAAPPVAPERQPSWDPSPVSSTVPAPSPLSAAAVSPSKLPEDDEPPARPPPPPPASVSPQAEPVWTPPAPAPAAPPSTPAAPKRRGSSGSVVVDLLYWRDIKKTG
modifications: left off: large carriers
notes: AP fusion protein of Amino-Nogo residues of Nogo-B
NgR Kd (nM) (NgR): No binding
binding to NgR (COS-7 cells expressing NgR) (NgR): fail to associate with NgR-expressing cells

B6: AP-B4C-66: AP fusion protein with the B4C fragment of Amino-Nogo-A fused directly to Nogo-66 (protein)
chain: LLPPDVSALATQAEIESIVKPKVLVKEAEKKLPSDTEKEDRSPSAIFSAELSKTSVVDLLYWRDIKKTGRIYKGVIQAIQKSDEGHPFRAYLESEVAISEELVQKYSNSALGHVNCTIKELRRLFLVDDLVDSLK
modifications: left off: large carriers
Kd for binding of AP-B4C-66 to NgR (NgR; NgR expressing COS-7 cells, FIGS. 6A and 6B): subnanomolar

Second part, the molecule after the results:

NgR Kd (nM) (NgR): No binding
Molecule: LSKTSVVDLLYWRDIKKTG (also: alkaline phosphatase fusion; UniProt Q9NQC3 1000-1018, looked up, fragment) [a.a. 1000-1018, AP fusion protein of Nogo-A aa 1000-1018]

NgR Kd (nM) (NgR): No binding
Molecule: VVDLLYWRDIKKTG (also: alkaline phosphatase fusion; UniProt Q9NQC3 1005-1018, looked up, fragment) [a.a. 1005-1018, AP fusion protein of Nogo-A aa 1005-1018]

ligand binding category of NgR mutant (Table II) (NgR ligands): No binding
binding result (AP-Nogo-66): no binding
binding result [1]: no binding
binding result [2]: no binding
B4: human NgR1 alanine mutant 117, 119, 120, 139 (receptor)
chain: CPGACVCYNEPKVTTSCPQQGLQAVPVGIPAASQRIFLHGNRISHVPAASFRACRNLTILWLHSNVLARIDAAAFTGLALLEQLDLSDNAALAAVDPATFHGLGRLHTLHLDACGLQELGPGLFRGLAALQYLYLQDNALQALPDDTFRDLGNLTHLFLHGNRISSVPERAFRGLHSLDRLLLHQNRVAHVHPHAFRDLGRLMTLYLFANNLSALPTEALAPLRALQYLRLNDNPWVCDCRARPLWAWLQKFRGSSSEVPCSLPQRLAGRDLKRLAANDLQGCAVATGPYHPIWTGRATDEEPLGLPKCCQPDAADKASVLEPGRPASAGNALKGRVPPGDSPPGNGSGPRHINDSPFGTLPGSAEPPLTAVRPEGSEPPGFPTSGPRRRPGCSRKNRTRSHCRLGQAGSGGGGTGDSEGSGALPSLTCSLTPLGLALVLWTVLGPC

ligand binding category of NgR mutant (Table II) (NgR ligands): No binding
binding result (AP-Nogo-66): no binding
binding result [1]: no binding
binding result [2]: no binding
B5: human NgR1 alanine mutant 202, 205, 227, 250, 277, 279 (receptor)
chain: CPGACVCYNEPKVTTSCPQQGLQAVPVGIPAASQRIFLHGNRISHVPAASFRACRNLTILWLHSNVLARIDAAAFTGLALLEQLDLSDNAQLRSVDPATFHGLGRLHTLHLDRCGLQELGPGLFRGLAALQYLYLQDNALQALPDDTFRDLGNLTHLFLHGNRISSVPERAFRGLASLARLLLHQNRVAHVHPHAFRDLGALMTLYLFANNLSALPTEALAPLAALQYLRLNDNPWVCDCRARPLWAWLQAFAGSSSEVPCSLPQRLAGRDLKRLAANDLQGCAVATGPYHPIWTGRATDEEPLGLPKCCQPDAADKASVLEPGRPASAGNALKGRVPPGDSPPGNGSGPRHINDSPFGTLPGSAEPPLTAVRPEGSEPPGFPTSGPRRRPGCSRKNRTRSHCRLGQAGSGGGGTGDSEGSGALPSLTCSLTPLGLALVLWTVLGPC

Reference: patent US20090111753A1, “Nogo-A Polypeptide Fragments, Variant Nogo Receptor-1 Polypeptides, and Uses Thereof” (Yale University, priority 2004, published 2009)
